Patent US20170096474A1 (published 2017)

T1: BoNT/B binding domain (HC), yeast displayed (Clostridium botulinum, UniProt P10844 858-1291)
T1 sequence: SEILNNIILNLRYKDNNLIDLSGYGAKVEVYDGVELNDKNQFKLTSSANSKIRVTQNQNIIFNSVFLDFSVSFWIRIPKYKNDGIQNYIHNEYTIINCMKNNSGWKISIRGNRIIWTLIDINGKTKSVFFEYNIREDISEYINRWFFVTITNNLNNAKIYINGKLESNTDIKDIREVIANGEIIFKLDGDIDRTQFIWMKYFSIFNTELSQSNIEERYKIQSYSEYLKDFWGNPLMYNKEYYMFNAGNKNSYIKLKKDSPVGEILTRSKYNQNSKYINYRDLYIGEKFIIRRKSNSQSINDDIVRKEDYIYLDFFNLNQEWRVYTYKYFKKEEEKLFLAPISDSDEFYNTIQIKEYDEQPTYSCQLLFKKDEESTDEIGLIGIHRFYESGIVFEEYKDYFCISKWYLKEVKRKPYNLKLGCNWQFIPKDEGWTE

T2: BoNT/B light chain (LC), yeast displayed (Clostridium botulinum, UniProt P10844 1-441)
T2 sequence: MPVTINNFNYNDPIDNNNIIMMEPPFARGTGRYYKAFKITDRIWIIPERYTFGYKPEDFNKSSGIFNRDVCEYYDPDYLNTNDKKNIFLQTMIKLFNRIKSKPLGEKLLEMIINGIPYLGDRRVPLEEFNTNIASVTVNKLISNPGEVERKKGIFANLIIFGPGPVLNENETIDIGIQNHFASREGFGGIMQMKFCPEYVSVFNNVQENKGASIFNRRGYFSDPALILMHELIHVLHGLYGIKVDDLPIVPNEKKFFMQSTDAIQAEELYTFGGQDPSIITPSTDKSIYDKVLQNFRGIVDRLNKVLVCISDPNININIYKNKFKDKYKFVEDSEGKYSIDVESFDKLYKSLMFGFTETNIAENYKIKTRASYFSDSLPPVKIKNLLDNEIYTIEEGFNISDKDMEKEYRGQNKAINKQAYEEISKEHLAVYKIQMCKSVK

T3: BoNT/B translocation domain (HN), yeast displayed (Clostridium botulinum, UniProt P10844 442-857)
T3 sequence: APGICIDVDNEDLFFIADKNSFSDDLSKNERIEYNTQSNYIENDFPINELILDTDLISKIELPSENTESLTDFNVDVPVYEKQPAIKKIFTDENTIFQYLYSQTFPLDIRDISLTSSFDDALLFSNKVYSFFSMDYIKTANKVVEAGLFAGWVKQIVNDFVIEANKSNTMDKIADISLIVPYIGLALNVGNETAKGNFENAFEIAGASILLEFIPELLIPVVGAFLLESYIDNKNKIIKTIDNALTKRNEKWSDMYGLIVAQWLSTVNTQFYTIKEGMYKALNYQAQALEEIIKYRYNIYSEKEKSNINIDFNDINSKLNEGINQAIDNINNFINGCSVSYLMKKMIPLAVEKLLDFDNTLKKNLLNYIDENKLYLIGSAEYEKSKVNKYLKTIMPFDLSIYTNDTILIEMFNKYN

B1: 1B18 IgG (antibody, V domains shown)
VH: EVQLVQSGGGLVQPGGSRRLSCAASGFYFNAYWMTWVRQAPGKGLEWVANINLDGTEIYYLDSVKGRFTVSRDNVKNSVFLQMSSLRVEDTAVYFCARLEWGGRNGWVSPWGQGTLVTVSS
VL: DVVMTQSPSSVSASVGDRVTITCRASQSISSYLNWYQQRPGKAPKLLIFAASSLQSAVPSRFSGSGSGTDFTLTISSLQPEDFATYYCQQSYSTPPTFGQGTKVEIKR
B2: 2B30 scFv (scFv)
scFv: EVQLVESGGGVVQPGRSLRLSCAASGFTFRRNAIHWVRQAPGKGLEWVAVISYDGVNKYYAASVKGRFAISRDNAKNTLFLQMNSLRPEDSAIYYCARDVSEYGDYVGHFDYWGQGTLVTVSSGGGGSGGGGSGGGGSSYELMQLPSASGTPGQRVSISCSGSSSNIGSNPVNWYQQLPGTAPKLLIYSNNHRPSGVPDRFSGSKSGTSASLAISGLQSEDEADYYCAAWDGSLNGHVVFGGGTKLTVL

Experiments:
[1] = target: T1, BoNT/B binding domain (HC), yeast …; test: flow cytometry, mAb staining of yeast-displayed BoNT/B domains
[2] = target: T2, BoNT/B light chain (LC), yeast displayed; test: as above
[3] = target: T3, BoNT/B translocation domain (HN), yeast …; test: IgG/Fab on yeast-displayed toxin domain, flow cytometry
[4] = target: T1, BoNT/B binding domain (HC), yeast …; test: soluble scFv or IgG on yeast-displayed BoNT/B domains

Binder	binding result [1]	binding result [2]	binding result [3]	binding result [4]
B1	no binding	no binding	binds	–
B2	–	–	–	binds
